Data as given in the DeepSol protein solubility set.

Assay: soluble on expression in E. coli; label from the status in PepcDB or PDB records

Row | Sequence | soluble on expression in E. coli
1 | MSLADPGREGHLEQRILQVLTEAGSPVKLAQLVKECQAPKRELNQVLYRMKKELKVSLTSPATWCLGGTDPEGEGPAELALSSPAERPQQHAATIPETPGPQFSQQREEDIYRFLKDNGPQRALVIAQALGMRTAKDVNRDLYRMKSRHLLDMDEQSKAWTIYRPEDSGREGHHHHHH | soluble
2 | MSLADTYRPEISVAGFIPLPDCGRQVYNFNPGWRFFKGDIRGAEAVNFDDRSWEVVSTPHTVELMPAEGSGCRNYQGPAWYRKHFVVPTATKGQRVLLHFEAAMGKQVLYLNGKRVQEHLGGYLPFTLDLTANGVQAGDSCLLAVYTDNSNDKSYPPGKPQYTLDFAYHGGIYRDVWMIAKSPVAITDAIDSRTVGGGGVFVHFDKISEKSAQVYVETEIQNDNTRSESVTIETTLTDAEGNVIKRTSGKLSLNSGEKKSIRQQMEVRNPKLWSPDAPYLYRVQSRIKKGNRSIDGGTTRIGIRLAEFRGKEGFWLNGKPFGQLVGANRHQDFAYVGNALPNSQQWRDAKRLRDAGCTIIRVAHYPQDPSFMDACDELGLFVIVATPGWQYWNKDPKFGELVHQNTREMIRRDRNHPSVLMWEPILNETRYPLDFALKALEITKEEYPYPGRPIAAADVHSAGVKEHYDVVYGWPGDDEKEDKPEQCIFTREFGENVDDWYAHNNNNRASRSWGERPLLIQALSLAKSYDEMYRTTGQFIGGTQWHPFDHQRGYHPDPYWGGIYDAFRQKKYAYEMFRSQSPASLQHPLAECGPMIFLAHEMSQFSDKDVVVFSNCDSIRLSIYDGTKTWTKPVVHAKGHMPNAPVIFENVWDFWEARGYSYTQKNWQKVNMVAEGIIDGKVVCTQKKMPSRRSTKLRLYADTQKVNLVADGSDFIVVVAEVTDDSGNVRRLAKENIVFTVEGEGEIIGDARIGANPRAVEFGSAPLLIRSTRKAGKIKVKAHVQFEGTQAPTAAEMEFESVPAELPFCYDEKEGHHHHHH | soluble
3 | MSLAENSLKIWNWSYYIDEALLDEFAAHAGIPRENIVYDEYDDPNVVLSRLEAGKSGYDVVIIPDYILDVAIKEGLLMELNKSLIPNYPHLDEKFKSTPYDPEGRYSAVYMWGTTGFGYRSDLAEKVTTLRQIFDPDYGYLKKYSKKITMLEEPIEVILACKAFLGKSVDDWSDETMQEVKEALIRQKPYLAAYAGANVYVEGLKNGSIYVAHAYNGDIVRLQDEEGVDQASFAIPEEGGTIWTDNMCIPKDAENVELAHEFINFMLDPEVSGRNSDYIKYASPVKEARNYVSEEVLENPAVYVPEDLMKKLWFTPQLDEEARRKIENLMIEVKASTEGHHHHHH | soluble
4 | MSLAESQLSKLDVNLQSLNPYTFSKTRCIVNLHISDDTKNRDPSTTNGSYSNSQLLSNGEHVCYHFSQDYCVLSIYPVTDAITGKTVVVHLPHETFNDHHTFTMAEEDGCIVMDLILKTGLFLTLRFSLEYLFNRNADINSSWYSLLKPYDFTVRLPDYLYKVNSALSIVYLNDGGLLGLQKTQTSGSDEYDLHPVLFNDNSYFQSFTRFFSHNDSGRENVVSSVSYGDYHLLTLTENCKLRIWDLRTNSVTAQLNLITDPQDKHRKYESIGPYLALLDSVLVVFLPFGNGAFRTFQLSVNNSGGLVLTPRGELIRTNLSTASIWSLVDTKLTKPFELNIETSYLQMVVLWKSNTSIKLQILNFETEALDKHSWVEASNKSLPDILDNDILGDNFEQSLLDLKAHYTPAIYEEAQRILSANGIIFVPSQQNNDEYLSNLESILKDLKKHHDEPSSLTLYNGEVVMVNTLYLYNHFVYKINSKLESFYYNLTSEGHHHHHH | soluble
5 | MSLAETFWVDVQRAEGRPLNLELIAPLSVGSKSVEEVENVAIRVELTNGCVGWGEVPVFPSVTAVNHTVALAKAMEACEFLSCSSPMVLSLVLSEIGGILPGPELASVRAGVEMALIDAVANSIDVPLWRLFGGVANTLTTGVTLPTVFPAEAYSQGASKYCQSGFRTFKLKIGKNTSAEIKALQAIQAAHPLCSLILDANEAYTCQEAIEILQKLYDSGITPAVLEQPVHRSDWKGLGEVSNFAREKKYGISVAVDETCQSLIEVRRVIKENLADAINIKLAKFGVMGALEIIELARESGVKLMISGTVESRLATGFAAHLAAGLGCFKSVVLDMPFLLSEDPVICGYEASGPVYKFLNVRGQGGFLKWDFSSWEGHHHHHH | soluble
6 | MSLAEVAEVSEQDFGEILAQTRQFVRTAVVPREQEILDGDRVPDDLRDQARKMGLFGYAIPQQWGGLGLNLMQDVELAMELGYTSLALRSMFGTNNGIAGQVLVGFGTEAQKARWLEPMAAGDVVASFALTEPGAGSNPAGLRTKAVADGDNWVISGQKRFITNAPVADLFVVFARTRPADDQGPGIAVFLVPADAAGVQVGAKDAKMGQEGAWTADVSFDDVRVGGDALIGGSENIGYRAAMTSLARGRVHIAALAVGAAQRALDESVSYAATATQGGTPIGNFQLVQAMLADQQTEVLAGRALVREAARLWVTGEDRRVAPSAAKLYCTEMAGRVADLAVQVHGGSGYMRGVPVERIYRDVRLLRLYEGTSEIQRLIIGSNLVKAAQREGHHHHHH | soluble
7 | MSLAFKPARVIFEQDALKYPMGEKLYRFFRDKGTDVSFAASHNRVSAIPGRTRSEKYFEAKRTLVVGVRRTTAFETCKPSAHFQLPLATSCPGKCEYCYLLTNMGKKPYVRIYVNIEEILSAARGYIEDRKPQVTVFEGAATSDPVPVEPYTGALARAVEFFGGQEYGRFRFVTKFTEVDTLLDVPHNGHTRFRFSINTPEVIRRFEHATPPLAERLAAAWKVAAAGYPLGFLVAPIIMYDGWRDSYRDLFKTAAAGLNGKVYDLTFEFITHRFTKRAKGTILEVFPSTRLDMDEEARAFKFGQFGYGKYVYPKELFSDAKIYFEGLAGEYFPGSKVEYFVEGHHHHHH | not soluble
8 | MSLAGDDAVNLTLVTGAPANGGSCVAHHEGRVVFVRYALPGERVRARVTAQRGSYWHAEAFEVIDPSPDRIGSLCSIAGADGAGCCDLAFAAPEAARTLKAQVVANQLERLGRHSWQGEAQPLSDAGPTGWRIRVRLDVGADRRPGFHRYHSGELVTDLDCGQLPVGMLDGLVAADWPPEAQLYVALDDDGERHVVCSVRQGPRNRTRTVTNVVEGAYHAHQRVHRRSWRVPVTAFWQAHRDAAAVYSDLIADWAQPAPGMTAWDLYGGAGVFAAVLGEAVGESGRVLTVDTSRLASGAARAALVDLPQVEVVTGSVRRVLAVQPAGADLAVLDPPRSGAGREVVDLLAGAGVPRLIHIGCEAASFARDIGLYRGHGYAVEKIKVFDAFPLTHYVECVALLTRKVEGHHHHHH | soluble
9 | MSLAHGIPSQGKVTITVDEYSSNPTQAFTHYNINQSRFQPPHVHMVDPIPYDTPKPAGHTRFVCISDTHSRTDGIQMPYGDILLHTGDFTELGLPSEVKKFNDWLGNLPYEYKIVIAGNHELTFDKEFMADLVKQDYYRFPSVSKLKPEDFDNVQSLLTNSIYLQDSEVTVKGFRIYGAPWTPWFNGWGFNLPRGQSLLDKWNLIPEGIDILMTHGPPLGFRDWVPKELQRVGCVELLNTVQRRVRPKLHVFGGIHEGYGIMTDGYTTYINASTCTVSFQPTNPPIIFDLPNPQGSEGHHHHHH | soluble
10 | MSLAKISKIEAQKRKGRYNIYLDGKYAFPVAESVLIQFRLMKGTELDEKQIAAIATADQQAKAYSRMLDYLSYQMRTESDIVKKLKEIDTPEEFVEPILKKLRGQQLIDDHAYAASYVRTMINTDLKGPGIIRQHLRQKGIGESDIDDALTQFTPEVQAELAKKLALKLFRRYRNQPERRREQKVQQGLTTKGFSSSVYEMIKDEVVPQPDLEQENDLLAKEAAKQWRRVRRYQGYEREQHFKQTMYRKGFDLDDVQSWLDAQDEGHHHHHH | soluble
11 | MSLAKKNYILVIDDDVMMSQTISDFIHGKGYHVIVCNNLEEAFSELSQYKIDLILINFWQPDGTALILLEHLNEEKITTPVIVISNTKEHQSVLECFRMGVLDFVVKPINLEIFWYKVECLLTRVKLQHEVKLQRVELEKMLYEKAREEKMARNLFEHLVNIDNTQFEFVRTFCQASANFSGDIILKGLAPNGNFFLMPEFNSEVRHSTIKQLIGEEGHHHHHH | soluble
12 | MSLAKVLYITAHPFNELVSNSMAAGKAFIETYQQQHPDDEVKHIDLFETYIPVIDKDVLTGWGKMSNGETLTDDEQMKVSRLSDILEEFLSADKYVFVTPMWNLSFPPVVKAYIDAISIAGKTFKYSAEGPQGLLTDKKVLHIQSRGGYYTEGPAADFEMGDRYLRTIMTFLGVPSYETIIIEGHNAEPHKTEEIKATSINNAEKLATTFEGGSHHHHHH | soluble
13 | MSLALAIFDLDETLIHGDCATLWSEQMGRLGWVDSESFMRRNHELMDAYSHGKLAMEEFMDFSLEPMSGRTPEEVAHLVEPWVEEVIEPIIFSDACKAIAAHRQAGDRILVISASGTHLVKPIAARLGIDEVLGIELEVQHGVYSGRTVGTLTYREGKITRLLQWLDAEEENLEGATFYSDSRNDLPLLLRVDHPQVVNPDPVLREHAQKAGWPIHHWKEGHHHHHH | soluble
14 | MSLALSTEQKTKMWAMLNQTRGQIGLTAYKDYIFGILFYKYLSEKATHWLNGVLRGENWENVYSQDSVKALNYMKKNLGYAIQPNEFFVDWKKAIDTDRFNIGMMTDTFTHFNQQIAFEAKNDFEGIFDGMRFDSADLGANAQARASVMISMIELLSSPEFDLSGSNDTVSDIYEYLVAQFATVLASDMGQYYTPKEISNVMARILTFGREDMEKFSIFDPTVGSGSLLLTTASYMKNSGRRGVIKYYGQEKDATPYRLSRMNLMMHGIEYNDININHADTLESDWPDGVVDGKDTPRMFDAVMANPPYSAHWNNKDREDDPRWREYGVSPKTKADYAFLLHCLYHLEDNGRMAIILPHGVLFRGASEGRIRKALIDKHQIEAIIGFPDKLFLNTSIPVCVVILRKNRIESDILFVDASKGFEKIKKQNNLRSEDVEKIVDTVINRKEIEKYSHVATLDEIKENDYNLNIPRYVDTFEEEEAIDLVALGNEMVTLNADIKKAETDFLGLLDELAVTPDTKEIIEATKAVFREGHHHHHH | soluble
15 | MSLANFVHEGDLPDGVFADAEIIAIDSETMGLRLRRDPLCVVQLSAGDGDAHVVRLSRPDYDCPNLKALLTNPKVLKLFHFGRFDIAMFELHLGVVTAPVYCTKIASKLARTYTDRHGLKDVTRELLGVELSKVQQSSDWGAPSLSVDQVAYAASDVLHLHGLRLKLNAMLEREGRMALAQHAFDYLPHRASLDLAGWEEMDIFAHSEGHHHHHH | soluble
16 | MSLAPALKAEILAQALPYIRKFHGKTIVIKYGGNAMTEEKLKHGFARDVILLKLVGMNPVVVHGGGPQIDDALKKVGKTGTFIQGMRVTDEETMEVVEWVLGGEVQQDIVMLINQYGGQAVGLTGKDGGLIRAKKLKMPDREQPGQFIDIGFVGDIETINPAVVRALQDDAFIPVISPIGFSDDGQAYNINADVVAGKMAEILKAEKLVMMTNIPGVMDKQGNLLTDLSAREIDELFADGTISGGMLPKISSALDAAKSGVNSVHIIDGRIEHSLLLEILTEQAFGTMIRSHEGHHHHHH | not soluble
17 | MSLAPINPYPLLQACQRQRVSDGAIAPVLAGTESSDRLLVLIWPQLGDFDSLEYAQWLQREQDQIQQLGLTIRAVGIGDRDSGQRFCEFTGFPADQLFVDPTASLHQELELYPGLQLSIPGFSPAAKAWLNLLLMCAGIGSPGTLAEVLRGYRGDRSAPQLIAAEETVQAAPLPPIKGNFFNLAGGSGFQRPMELATLRLRNMAESLGHWRTYVPDTSYMTQRGGTFLFDRDRQLIYEHRDHGILGFSATMNRPLSFLDNLPTPSTASEGHHHHHH | soluble
